Results from PMC4601027, “Structural Analysis of the Pin1-CPEB1 interaction and its potential role in CPEB1 degradation” (Scientific Reports, 2015).
Where “and” joins values, the source holds several entries; their conditions need not be identical. Equal values may be shown once. Non-standard residues stand in square brackets, D forms with d. No end group written: not given here. pS = N[C@@H](COP(=O)(O)O)C(=O)O

How the values were obtained:
full-length Pin1 [1] = target: T1, full-length Pin1 (UniProt Q13526 1-163); assay: ITC; nano ITC, 12 °C or 25 °C; 20 mM Tris-HCl pH 7.0, 130 mM NaCl; 10- to 15-fold concentrated peptide injected (16 x 3 μL) into 190 μL of protein at 150-200 μM; single-site fit, except Pin1 full-length with pS210; conditions: both partners purified
T1 construct: Pin1 (peptidyl-prolyl cis/trans isomerase), full length; WW domain, linker and PPIase (catalytic) domain; Uniprot Q13526 is printed for the WW construct; 15N-labelled for NMR; The vector has a TEV cleavage site; Monomer by IM-MS; also called Pin1 full-length; full-length Pin1 protein; source: recombinant; clone from Addgene (Dustin Maly's Lab) in pMCSG7
T1 sequence (Q13526 whole entry, the tested form may be a part): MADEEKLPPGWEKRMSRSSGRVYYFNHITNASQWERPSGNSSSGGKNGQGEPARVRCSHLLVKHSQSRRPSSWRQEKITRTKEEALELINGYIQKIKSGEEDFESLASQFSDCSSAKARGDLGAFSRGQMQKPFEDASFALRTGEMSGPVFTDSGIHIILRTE

full-length Pin1 [2] = target: T1, full-length Pin1; assay: native MS; travelling wave ion mobility mass spectrometry (IM-MS), nano-electrospray; unbound full-length Pin1 or Pin1 with CPEB1 pS210, 30-50 μM, 20-50 mM NH4OAc pH 7.2; conditions: both partners purified

RI[pS]PPLPF-NH2 [CPEB1 pS210 peptide]
stoichiometry N (full-length Pin1 [1]): 0.85 | stoichiometry N (full-length Pin1 [2]): 1 ligands per Pin1 and 2 ligands per Pin1
